Test results: patent US20240325555A1 (LANOVA MEDICINES, published 2024)

Key:
human LIV-1 [1] = molecular target: T1, human LIV-1 (human, UniProt Q13433 29-755); assay: cell-based or functional assay
T1 sequence (looked up): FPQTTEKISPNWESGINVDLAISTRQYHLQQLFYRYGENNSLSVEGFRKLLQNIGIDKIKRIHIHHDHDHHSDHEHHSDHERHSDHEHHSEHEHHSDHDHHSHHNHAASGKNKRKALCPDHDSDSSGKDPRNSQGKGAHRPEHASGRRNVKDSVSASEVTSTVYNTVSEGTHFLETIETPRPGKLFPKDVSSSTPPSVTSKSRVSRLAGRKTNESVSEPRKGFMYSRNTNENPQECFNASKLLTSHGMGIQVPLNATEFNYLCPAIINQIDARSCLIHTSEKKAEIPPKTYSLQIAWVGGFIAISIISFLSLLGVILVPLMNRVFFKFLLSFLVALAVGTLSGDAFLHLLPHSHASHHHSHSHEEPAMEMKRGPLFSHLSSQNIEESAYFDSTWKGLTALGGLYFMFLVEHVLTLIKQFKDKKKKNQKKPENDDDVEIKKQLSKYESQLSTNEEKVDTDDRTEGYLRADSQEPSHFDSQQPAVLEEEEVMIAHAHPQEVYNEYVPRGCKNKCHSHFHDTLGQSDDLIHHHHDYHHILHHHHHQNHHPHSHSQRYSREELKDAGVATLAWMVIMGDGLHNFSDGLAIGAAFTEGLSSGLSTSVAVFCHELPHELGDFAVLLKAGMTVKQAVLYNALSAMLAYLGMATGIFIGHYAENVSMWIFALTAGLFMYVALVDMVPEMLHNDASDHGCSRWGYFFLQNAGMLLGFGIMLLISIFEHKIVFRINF

human LIV-1 [2] = molecular target: T1, human LIV-1; assay: FACS, HEK293/H_LIV-1 cells
Procedure: (§1) Cell based binding of ADC and naked of ADC on human LIV-1 expressing cells were assessed using flow cytometry. Briefly, HEK293/H_LIV-1, both low- and high-expressing H-LIV1-positive cell lines were incubated with ADC and naked of ADC (from 100 nM, 6 folds dilution, 8 points), respectively. After incubation at 4° C. for 60 minutes, the cells were washed with FACS buffer twice, then stained with fluorescent conjugated secondary antibody at 4° C. for 30 minutes. After that the cells were washed twice and analyzed by flow cytometry.

human LIV-1 [3] = molecular target: T1, human LIV-1; assay: FACS, BT20/H_LIV-1 Low cells
Procedure: as §1

human LIV-1 [4] = molecular target: T1, human LIV-1; assay: FACS, BT20/H_LIV-1 High cells
Procedure: as §1

human LIV-1 [5] = molecular target: T1, human LIV-1; assay: cell-based or functional assay; remark: listed apart in the source
human LIV-1 [6] = molecular target: T1, human LIV-1; assay: cell-based or functional assay; remark: listed apart in the source
human LIV-1 [7] = molecular target: T1, human LIV-1; assay: cell-based or functional assay; remark: listed apart in the source
human LIV-1 [8] = molecular target: T1, human LIV-1; assay: cell-based or functional assay; remark: listed apart in the source
human LIV-1 [9] = molecular target: T1, human LIV-1; assay: FACS, HEK293/H_LIV-1 cells; remark: listed apart in the source
In short: (§2)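 HEK293 cells over-expressing human or cyno LIV-1 incubated with chimeric Abs (from 100 nM, 5-fold dilutions, 8 points) for 60 min at 4 °C, then fluorescent secondary antibody 30 min at 4 °C; washes in 2% FBS/PBS. Binding read by flow cytometry; EC50 from the titration curve.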

cynomolgus LIV-1 = cynomolgus LIV-1 (cynomolgus, UniProt A0A2K5WH46 30-741); assay: FACS, HEK293/Cyno_LIV-1 cells
In short: as §2

B1: 5D6B10.z7-Eribulin (antibody, V domains shown)
VH: QVQLVQSGGGVVQPGRSLRLSCTVSGFSLTTYGIHWVRQSPGKGLEWLGVIWTGGTTDYNAAFISRLTISKDNSKSTVYFQMNSLQAEDTAIYYCARGPSSYWGQGTLVTVSS
VL: EIVMTQSPATLSVSPGERATLSCKASQNVDTNVVWYQQKPGQSPRALIYSASYRYSGVPARFSGSGSGTEFTLTISSLQSEDFAVYFCQQYNNYPWTFGQGTKVEIK
modifications: Eribulin drug moiety conjugated; site and chain not stated
notes: Antibody-drug conjugate of 5D6B10.z7; human gamma 1/kappa
Min cell viability %, BT20/H_LIV-1 High (human LIV-1 [1]): 31.5% | Min cell viability %, BT20/H_LIV-1 Low (human LIV-1 [1]): 42.9% | Min cell viability %, HEK293/H_LIV-1 (human LIV-1 [1]): 21.2% | EC50 (human LIV-1 [2]): 0.47 nM | Top (MFI) (human LIV-1 [2]): 98700 MFI | EC50 (human LIV-1 [3]): 0.5 nM | Top (MFI) (human LIV-1 [3]): 37200 MFI | EC50 (human LIV-1 [4]): 0.87 nM | Top (MFI) (human LIV-1 [4]): 154000 MFI

B2: 5D6B10.z7-MMAE (antibody, V domains shown)
VH: QVQLVQSGGGVVQPGRSLRLSCTVSGFSLTTYGIHWVRQSPGKGLEWLGVIWTGGTTDYNAAFISRLTISKDNSKSTVYFQMNSLQAEDTAIYYCARGPSSYWGQGTLVTVSS
VL: EIVMTQSPATLSVSPGERATLSCKASQNVDTNVVWYQQKPGQSPRALIYSASYRYSGVPARFSGSGSGTEFTLTISSLQSEDFAVYFCQQYNNYPWTFGQGTKVEIK
modifications: MMAE drug moiety conjugated; site and chain not stated
notes: as for B1
Min cell viability %, BT20/H_LIV-1 High (human LIV-1 [1]): 28.4% | Min cell viability %, BT20/H_LIV-1 Low (human LIV-1 [1]): 43.5% | Min cell viability %, HEK293/H_LIV-1 (human LIV-1 [1]): 15% | EC50 (human LIV-1 [2]): 0.51 nM | Top (MFI) (human LIV-1 [2]): 96400 MFI | EC50 (human LIV-1 [3]): 0.5 nM | Top (MFI) (human LIV-1 [3]): 35300 MFI | EC50 (human LIV-1 [4]): 0.98 nM | Top (MFI) (human LIV-1 [4]): 149000 MFI

B3: 290F10G10.z2-Eribulin (antibody, V domains shown)
VH: EVQLVQSGAEVKKPGASVKVSCKASGYTFTSYWIHWVRQAPGQGLEWMGTIYPGDADTRSTQKFKDRVTMTADTSTSTVYMELSSLRSEDTAVYYCARSLIHDDYDKYYFDYWGQGTTVTVSS
VL: DIQMTQSPSSLSASVGDRVTITCKARQDINKYIAWYQQKPGKAPKLLIHYTSILQPGIPSRFSGSGSGRDYTFTISSLQPEDIATYYCLQYDYFFTFGGGTKVEIK
modifications: Eribulin drug moiety conjugated; site and chain not stated
Min cell viability %, BT20/H_LIV-1 High (human LIV-1 [1]): 17.6% | Min cell viability %, BT20/H_LIV-1 Low (human LIV-1 [1]): 38.4% | Min cell viability %, HEK293/H_LIV-1 (human LIV-1 [1]): 18.4% | EC50 (human LIV-1 [2]): 0.55 nM | Top (MFI) (human LIV-1 [2]): 18800 MFI | EC50 (human LIV-1 [3]): 1.14 nM | Top (MFI) (human LIV-1 [3]): 3620 MFI | EC50 (human LIV-1 [4]): 1.2 nM | Top (MFI) (human LIV-1 [4]): 21000 MFI

B4: LM-001-LM-D01 (antibody, V domains shown)
VH: EVQLVQSGAEVKKPGASVKVSCKASGYTFTSYWIHWVRQAPGQGLEWMGTIYPGDADTRSTQKFKDRVTMTADTSTSTVYMELSSLRSEDTAVYYCARSLIHDDYDKYYFDYWGQGTTVTVSS
VL: DIQMTQSPSSLSASVGDRVTITCKARQDINKYIAWYQQKPGKAPKLLIHYTSILQPGIPSRFSGSGSGRDYTFTISSLQPEDIATYYCLQYDYFFTFGGGTKVEIK
modifications: LM-D01 drug-linker conjugated; site and chain not stated
Bottom (% viability), BT20/H_LIV1-High expression (human LIV-1 [5]): 37.9% | Bottom (% viability), BT20/H_LIV1-Low expression (human LIV-1 [5]): 48.4%

B5: LM-001-DXD (antibody, V domains shown)
VH: EVQLVQSGAEVKKPGASVKVSCKASGYTFTSYWIHWVRQAPGQGLEWMGTIYPGDADTRSTQKFKDRVTMTADTSTSTVYMELSSLRSEDTAVYYCARSLIHDDYDKYYFDYWGQGTTVTVSS
VL: DIQMTQSPSSLSASVGDRVTITCKARQDINKYIAWYQQKPGKAPKLLIHYTSILQPGIPSRFSGSGSGRDYTFTISSLQPEDIATYYCLQYDYFFTFGGGTKVEIK
modifications: DXD drug moiety conjugated; site and chain not stated
Bottom (% viability), BT20/H_LIV1-High expression (human LIV-1 [5]): 43.7% | Bottom (% viability), BT20/H_LIV1-Low expression (human LIV-1 [5]): 58.9%

B6: LM-001-LM-D03 (antibody, V domains shown)
VH: EVQLVQSGAEVKKPGASVKVSCKASGYTFTSYWIHWVRQAPGQGLEWMGTIYPGDADTRSTQKFKDRVTMTADTSTSTVYMELSSLRSEDTAVYYCARSLIHDDYDKYYFDYWGQGTTVTVSS
VL: DIQMTQSPSSLSASVGDRVTITCKARQDINKYIAWYQQKPGKAPKLLIHYTSILQPGIPSRFSGSGSGRDYTFTISSLQPEDIATYYCLQYDYFFTFGGGTKVEIK
modifications: LM-D03 drug-linker conjugated; site and chain not stated
Bottom (% viability), BT20/H_LIV1-High expression (human LIV-1 [5]): 19.5% | Bottom (% viability), BT20/H_LIV1-Low expression (human LIV-1 [5]): 46.9%

B7: 124H4D11.p2.z4-Eribulin (antibody, V domains shown)
VH: QVQLVQSGAEVVKPGASVKVSCKASGFNIKDYYMHWVRQAPGQGLEWIGWIDPENDDTEYDPKFQGRVTMTADTSTSTVYMELSSLRSEDTAVYYCAARYYAFDYWGQGTMVTVSS
VL: DVLMTQSPLSLPVTLGQPASISCRSSQSIVHSNANTYLEWYLQRPGQSPRLLIYKVSNRFSGVPDRFSGSGSGTDFTLKISRVEAEDVGVYYCFQGSQVPPTFGQGTKLEIK
modifications: Eribulin drug moiety conjugated; site and chain not stated
notes: Antibody-drug conjugate of 124H4D11.p2.z4; human gamma 1/kappa
Min cell viability %, BT20/H_LIV-1 High (human LIV-1 [1]): 20.7% | Min cell viability %, BT20/H_LIV-1 Low (human LIV-1 [1]): 37.9% | Min cell viability %, HEK293/H_LIV-1 (human LIV-1 [1]): 21.5% | EC50 (human LIV-1 [2]): 0.1 nM | Top (MFI) (human LIV-1 [2]): 19400 MFI | EC50 (human LIV-1 [3]): 0.05 nM | Top (MFI) (human LIV-1 [3]): 3100 MFI | EC50 (human LIV-1 [4]): 0.1 nM | Top (MFI) (human LIV-1 [4]): 19200 MFI

B8: 124H4D11.p2.z4-MMAE (antibody, V domains shown)
VH: QVQLVQSGAEVVKPGASVKVSCKASGFNIKDYYMHWVRQAPGQGLEWIGWIDPENDDTEYDPKFQGRVTMTADTSTSTVYMELSSLRSEDTAVYYCAARYYAFDYWGQGTMVTVSS
VL: DVLMTQSPLSLPVTLGQPASISCRSSQSIVHSNANTYLEWYLQRPGQSPRLLIYKVSNRFSGVPDRFSGSGSGTDFTLKISRVEAEDVGVYYCFQGSQVPPTFGQGTKLEIK
modifications: MMAE drug moiety conjugated; site and chain not stated
notes: as for B7
Min cell viability %, BT20/H_LIV-1 High (human LIV-1 [1]): 18.6% | Min cell viability %, BT20/H_LIV-1 Low (human LIV-1 [1]): 40.3% | Min cell viability %, HEK293/H_LIV-1 (human LIV-1 [1]): 15.8% | EC50 (human LIV-1 [2]): 0.08 nM | Top (MFI) (human LIV-1 [2]): 20200 MFI | EC50 (human LIV-1 [3]): 0.07 nM | Top (MFI) (human LIV-1 [3]): 3420 MFI | EC50 (human LIV-1 [4]): 0.11 nM | Top (MFI) (human LIV-1 [4]): 20000 MFI

B9: 286B5E6 (antibody, V domains shown)
VH: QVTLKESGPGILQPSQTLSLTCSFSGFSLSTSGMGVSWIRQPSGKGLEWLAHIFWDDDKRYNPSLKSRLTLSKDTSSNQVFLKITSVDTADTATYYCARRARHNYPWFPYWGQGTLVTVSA
VL: DIVLTQSPASLAVSLGQRATISCKASQSVDYDGDSYMNWYQQKPGQPPKLLIYAASNLESGIPARFSGSGSGTDFTLNIHPVEEEDAATYYCQQSNEGPYTFGGGTKLEIK
notes: Tested as chimeric antibody
ADCC reporter EC50 (human LIV-1 [6]): 1.1 nM | ADCC reporter Top (RFU) (human LIV-1 [6]): 47800 RFU | Internalization EC50 (human LIV-1 [7]): 4.6 nM | Internalization Top (RFU) (human LIV-1 [7]): 448000 RFU | Cell viability(%) (human LIV-1 [8]): 4.88% | Cytotoxicity IC50 (human LIV-1 [8]): 1.39 nM | EC50 (human LIV-1 [9]): 0.32 nM | Top (MFI) (human LIV-1 [9]): 8090 MFI | EC50 (cynomolgus LIV-1): 0.55 nM | Top (MFI) (cynomolgus LIV-1): 2490 MFI

B10: 293F10B6 (antibody, V domains shown)
VH: QVTLKESGPGMLQPSQTLNLTCSFSGFSLNTSGMGVSWIRQPSGKGLEWLAHIFWDDDKRYNPSLKSRLTISKDVSSNQVFLKITSVDTADTATYFCARRARNNYPWFPYWGQGTLVTVSA
VL: DIVLTQSPASLAVSLGQRATISCKASQSVDYDGDSYMNWYQQKPGQPPKLLIYAASNLDSGIPARFSGSGSGTDFTLNIHPMEDEDVATYYCQQSNGAPFTFGGGTKLEIK
notes: Tested as chimeric antibody
ADCC reporter EC50 (human LIV-1 [6]): 7.9 nM | ADCC reporter Top (RFU) (human LIV-1 [6]): 133000 RFU | Internalization EC50 (human LIV-1 [7]): 6.1 nM | Internalization Top (RFU) (human LIV-1 [7]): 495000 RFU | Cell viability(%) (human LIV-1 [8]): 3.41% | Cytotoxicity IC50 (human LIV-1 [8]): 1.46 nM | EC50 (human LIV-1 [9]): 0.45 nM | Top (MFI) (human LIV-1 [9]): 8100 MFI | EC50 (cynomolgus LIV-1): 0.98 nM | Top (MFI) (cynomolgus LIV-1): 2250 MFI
